Experimental data published in patent US11992557B2, “Collagenase loaded liposomes for enhancing drug delivery” (TECHNION RESEARCH & DEVELOPMENT FOUNDATION LIMITED, priority 2018, dated 2024).

Assays:
[1] = test system: human pterygium transplanted to their eyes; experiment: Free collagenase I injection to the conjunctiva of mice with transplanted human pterygium; assay type: in vivo; conditions: 10 mg/ml by injection to the conjunctiva
Procedure: Pterygium is known to comprise four types of collagen: types I, II, III and IV. The stroma of pterygium and normal conjunctival tissue contains collagen types I, II, and […]. To test the ability of collagenase to break up and treat pterygium, mice that had human pterygium transplanted to their eyes were administered 10 mg/ml free collagenase I by injection to the conjunctiva.

pancreatic tumors = experiment: Penetrance of gold nanoparticles after pretreatment of PDAC mice; conditions: mouse, in vivo
Procedure: In order to quantify the extent to which encapsulation of collagenase in liposomes improved drug penetrance over free collagenase, PDAC mice were pretreated (intravenous injection twice, 24 hours apart) with empty liposomes, free collagenase or liposome encapsulated collagenase and then 24 hours later gold nanoparticles of various sizes. Specifically, 5, 20, and 100 nm gold nanoparticles were injected and gold penetrance to various organs was monitored 24 hours later. Liposome encapsulated collagenase increased the penetrance of 100 nm (FIG. 6B) and 20 nm (FIG. 6C) gold particles into pancreatic tumors as compared to free collagenase and empty liposomes. […] The experiment was repeated, and more organs/bodily fluids were examined, but similar results were obtained (FIG. 6E-G).

PDAC tumors = experiment: Effect of the collagenase treatment on pancreatic uptake of Gd-/iodine-liposomes; assay type: in vivo, C57BL/6 mice; conditions: PDAC mice, Gd-liposomes after pretreatment
Procedure: Control groups included injections of empty liposomes (n=10 mice), free collagenase (n=5 mice) or no injection at all (n=3 mice) instead of collagenase encapsulating liposomes. […] 24 hours later, the animals were euthanized, and their organs were harvested. The amount of Gadolinium in each organ was analyzed using elemental analysis (ICP-EOS, Agilent) at wavelengths of 335.048 and 342.246 nm. The organs were harvested, weighed and then burnt at 550° C. overnight. The burnt organs were dissolved in 5 ml of 1% nitric-acid and filtered using […] filters (Millipore Millex-GV, Merck, Darmstadt, Germany). The Gd concentration in the organs was measured using an ICP-EOS elemental analysis.
Micro-CT scan. Mice were imaged using an IVIS Spectrum CT Pre-clinical in-vivo imaging system (PerkinElmer, MA, USA) with the following parameters: CT was set to 50 ms, total projections were 720, voltage was set to 50 kV while the current to 1 mA the binning was determined to 2 and the X-ray filter was set to 440 A1. Hounsfield calibration was performed in air-0.004168 and water-0.5513. Two groups of tumors bearing mice (n=5 each) were divided to control and test group. The mice were weighed weekly and tumor progression was monitored by weekly IVIS scans (PerkinElmer). […] Tumor dimensions were assessed using the ROI tool in the IVIS imaging software (Living Image, PerkinElmer).

Collagen type-I bundles = experiment: Stress/strength profile of collagen fibers exposed to proteolytic enzymes; assay type: biochemical, Wistar rats
Procedure: Stress/strength profile of collagen fibers exposed to collagenase: Collagen type-I bundles, sourced from the tails of Wistar rats, were suspended using a LLOYD LF-Plus Digital Material Tester force machine. The bundles were suspended inside a bath loaded with a buffer that simulates the composition of the oral fluid: an isotonic solution, pH 6.7 at 37° C. complemented with electrolytes including sodium, potassium, calcium, magnesium, bicarbonate, and phosphates. The bundles, 0.8-1.2 mm in diameter, were cut into two equal 4-cm sections, acting as an internal control. Collagenase type-I from Clostridium histolyticum (Sigma-Aldrich) was added at different concentrations and the stress/strength profile of the collagen fibers was recorded as a function of the collagenase treatment. The Ultimate Tensile Strength (UTS) of the collagen bundle was determined for each collagenase concentration.
Collagen regeneration SEM. Collagen bundles were mounted on carbon tape and imaged using a Zeiss UltraPlus high-resolution scanning electron microscope (HR-SEM) equipped with an Everhart-Thornley secondary electron detector. Each bundle was then cut in half. The untreated half acted as an internal control for each treated bundle. All data points are the mean of 14-20 experimental points. Collagen fibers were exposed to 0.05 mg/ml collagenase for 8 hours. Ethylenediaminetetraacetic acid (EDTA; ST. Louis, USA), 3 mM along with two drops of NH4Cl 1M buffer, were added for 30 minutes in order to retard the enzyme's activity. Subsequently, the media was removed, and the treated bundles were washed two times with new growth media to allow bundle regeneration.
Collagen fibers regain their initial mechanical strength post nano-surgery. Collagen fibers were sourced from tails of Wistar rats. Each bundle was cut in half. The untreated half acted as an internal control for each treated bundle. All presented data points are the mean of 14-20 experimental points. Collagen fibers were exposed to collagenase at concentration of 0.05 mg/ml for 8 hours in order to weaken the bundles. […] Subsequently, the media was removed, and the treated bundles were washed twice with new growth media.
Two plant-based proteolytic enzymes were also tested for their ability to relax collagen: bromelain and papain. These plant-based enzymes are not specific to collagen but have been reported to act on collagen fibers. Collagens fiber strength was tested with a force machine in the presence of 1 mg/ml collagenase, bromelain or papain. The force required to break a bundle of fibers with no treatment was set to 1, and the force required to break the treated fiber bundles was standardized to this force. […] At this same time point bromelain and papain reduced the strength of the collagen fibers such that less than 70% of the control force was needed to rupture the fibers. […] Thus, both papain and bromelain served as effective collagen relaxing enzymes, though much weaker ones than […].

[2] = test system: fluorescein conjugated gelatin substrate
Procedure: Collagenase activity assay. Collagenase type-I activity was determined using gelatin with fluorescein conjugate as a substrate (ThermoFisher). Collagenase (100 μl) was mixed with 80 μl of reaction buffer (0.05M Tris-HCl, 0.15M NaCl, 5 mM CaCl2, 0.2 mM sodium azide at pH 7.6) and 20 μl of 0.125 mg/ml gelatin diluted in PBS. The fluorescent intensity was measured every 15 seconds over a period of 3 minutes at 485 nm and 530 nm (excitation/emission) using an Infinite 200PRO. Collagenase activity was measured at 37° C., where plasma or PBS served as control.
To test the collagenase activity, liposomal collagenase after dialysis or free collagenase in phosphate buffered saline at a concentration of 5 ug/ml, were incubated at 37° C. Every hour, a collagenase sample was assessed for its capacity to cleave a fluorescein conjugated gelatin substrate (Thermo Fisher). Activity of the released collagenase was determined in accordance to the change in fluorescence over 3 minutes, relative to the fluorescence at t=0.
In order to quantify the protective nature of liposome encapsulation versus free collagenase, both free enzyme and encapsulated enzyme were incubated in PBS or serum and protein activity was measured by Enzcheck Assay at 0, 1, 6 and 24 hours.

Wistar rats = conditions: rat, in vivo
Procedure: All rats were anesthetized in two stages. In the first stage the rats were anesthetized with isoflurane. In the second stage each rat was injected a mixture of Ketamine and Xylazine intraperitoneally. After each procedure, the rats were transferred and kept in an incubator, with constant oxygen flow, until they reached full recovery.
An ordinary orthodontic Ni—Ti closed coil spring (9 mm closed coil spring nickel and titanium alloy that has 2 eyelets with an inner radius of 0.76 mm) was used to connect the 1st molar in the upper pallet to the front upper incisors of the rat. The Ni—Ti coil spring was glued to the tooth (3M UNITEK), which generates constant force of 200 grams (1.96 N) when extended between 12-24 mm. The force applied in the oral cavity was the same on all the rats that participated in the experiment. […] The procedure of installing the Ni—Ti coil closed spring was performed using human orthodontics equipment and materials. The 1st upper molar and the upper incisors were dried and cleaned using cotton swabs to remove any debris that accumulates. […]
Collagenase-liposomes (see above Liposome Preparation), or a similar concentration of free collagenase, were applied directly to the sulcus. […] The distance between the eyelet of the Ni—Ti closed coil on the first molar and the back of the upper incisors was measured and recorded using the digital caliper. […]

fibroblasts = experiment: Fibroblast adherence to collagen fibers during collagenase treatment; assay type: cell-based; conditions: during collagenase treatment of the fiber
Procedure: Fibroblast adherence to collagen fibers. The fibroblast morphological change was recorded using The LSM 710-laser scanning confocal microscope (Zeiss) over a period of 90 minutes. The fibroblasts nuclei were stained using Hoechst 33342 (Thermo Fisher Scientific, MA, USA). The Hoechast 16.23 mM stock solution was diluted 1:2000 in Dulbecco's Phosphate Buffer Saline (DPBS, Sigma-Aldrich, St. Louis, USA) and the collagen fiber buffer was removed. 3 ul of the diluted solution was added, followed by 10 minutes light protected incubation. The staining solution was removed, and the fiber was washed 3 times in PBS.

[3] = test system: fluorescein conjugated gelatin; experiment: Collagenase activity test in various conditions (temperature, ethanol, pH, extrusion pressure); assay type: biochemical
Procedure: Collagenase activity assay. Collagenase activity was assessed using fluorescein conjugated gelatin (ThermoFisher) as a substrate. The enzyme solution was added to the substrate solution together with a reaction buffer (0.5 M Tris-HCl, 1.5 M NaCl, 50 mM CaCl2, 2 mM sodium azide, pH 7.6). Fluorescence intensity for every sample was measured every 15 seconds for 3 minutes with excitation set at 485 nm and emission at 530 nm using the Infinite 200 PRO multimode reader (TECAN, Mannedorf, Switzerland). A linear incline was determined, and collagenase concentration was calculated using a calibration curve generated by collagenase samples of known concentrations.
Having established that collagenase's activity drops rapidly at 37 degrees (FIG. 7B), other parameters during liposome production that might affect the protein's integrity and function were examined.
Lastly, the activity of free collagenase at various pH was assayed.

PDAC collagen = experiment: Collagen analysis after ex-vivo collagenase treatment of pancreatic tumor slices; design: species or system mice; conditions: PDAC treated with 0.05-0.2 mg/ml collagenase ex-vivo, Masson's trichrome
Procedure: Collagen analysis after the collagenase treatment. Pancreatic tumors were harvested from tumor bearing mice, six weeks after the initiation of the tumor model. Each tumor was sliced horizontally to 1 cm thick slices. All the extracted slices were mixed and randomly chosen for different treatments groups. Treatments included incubation in DMEM medium (Sigma-Aldrich) with collagenase type-I (Sigma-Aldrich) at increasing concentrations: 0.05, 0.1 or 0.2 mg/ml for either 8 or 24 hours. Following the enzymatic treatment, the tumor slices were sectioned, fixated in 10% formalin (Sigma-Aldrich) and stained with Masson's trichrome. Computerized morphometry was utilized to quantitate the fraction of the fibrotic area out of the total area of the tumor in each sample. Computerized morphometry of the collagen was used to determine fibrosis fraction within each sample. Masson's trichrome staining was performed to identify the pancreatic fibrosis. Then, stained slides were entirely scanned at magnification of X20 using the Panoramic MIDI automatic digital slide scanner (3DHistech, Budapest, Hungary). The whole slide was analyzed in Image Pro Premier 9.2 software (Media Cybernetics, MD, USA). Fibrosis area was calculated according to the blue staining within the tissue, and the tissue area was calculated by choosing the whole tissue with the machine ‘color picker tool’.

- force needed to rupture the fibers, standardized to control force (Collagen type-I bundles; 1 mg/ml, 4 hours of treatment): almost no force
- time to degrade the collagen fibers (Collagen type-I bundles; 0.5 and 1 mg/mL collagenase): less than 10 hours
- initial strength profile regained by collagen fibers (Collagen type-I bundles; after the collagenase activity was retarded (16 h)): ~90%
- decrease of collagen fiber strength (Collagen type-I bundles; therapeutic dose of collagenase (0.05 mg/ml, 8 h)): approximately 50%
- half-life of collagenase once activated [2]: several hours
- level of fibrotic tissue (PDAC collagen): 1.28±0.3%
Substance: collagenase
- effect on the eye [1]: general breakdown of the eye, with extreme inflammation and damage seen throughout the eye
- penetrance of 5 nm particles into tumors (pancreatic tumors): decreased penetrance
- pancreatic uptake by elemental analysis of Gd (PDAC tumors): 15.1 μg-Gd/g-pancreas
- therapeutic window: fibers relaxed but not fully degraded (Collagen type-I bundles; oral physiological conditions): 0.05 to 0.1 mg/mL
- inflammation of the gingival tissue (histology) (Wistar rats): mild inflammation
- fibroblast detachment and viability (fibroblasts): fibroblast viability was retained
- activity of free collagenase at various pH [3]: Basic pH was found to result in improved collagenase activity
- activity of free enzyme versus temperature ([3]; 50 degrees or greater): completely abrogated protein function
- activity of free enzyme in ethanol ([3]; as little as 20% ethanol): completely abrogated protein function
- protein activity versus ethanol during liposome production ([3]; ethanol procedure): Inclusion of any amount of ethanol was also found to denature the protein and reduce its activity
- protein activity versus extrusion force ([3]; ethanol procedure): a force above 10 bar during extrusion was found to have a negative effect on protein activity
- protein activity versus temperature during liposome production ([3]; ethanol procedure): temperatures above 25 began reducing protein activity
